B1: WDFY1 (parent)
chain: LLIPKEDGVITASEDRTIRVWLKR

Variants of: B1
Test: protein stability index of a GFP-peptide fusion (GPS, HEK-293T) (PSI 1-6); higher = more stable
Conditions: c terminus: a fixed tail appended
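Also: lentivirally expressed fusions sorted by FACS into six bins by GFP to DsRed ratio, PSI derived from sequencing read proportions per bin multiplied by bin number.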

Protein stability index of substitutions, site by site:
E14: C 2.41 | K 1.93 | W 1 | F 2.37 | Y 1.32 | D 3.39 | Q 2.14 | A 1.71 | V 1.9 | P 2.62 | I 2.76 | G 2.29 | T 1.73 | M 2.62 | R 2.78
R24: M 1.53 | H 2.03 | I 3.32 | D 3.09 | L 1.83 | G 3.37 | F 2.44 | A 1.84 | E 2.48 | K 2.08
L22: M 3.01 | P 4.22 | K 2.91 | V 2.17 | H 2.75 | C 2.48 | R 3.11 | I 2.56 | Y 2.83 | N 2.77 | E 3.61 | T 2.54 | F 2.15 | S 2.79
S13: V 2.32 | Y 2.08 | Q 3.07 | P 1.66 | M 1.45 | N 1.99 | T 2.2
I18: Y 2.04 | R 3.55 | G 2.93 | V 2.61 | S 2.94 | C 2.07 | L 2.29 | E 2.52 | T 2.89 | H 2.34 | Q 3.97 | M 1.76 | K 1.74 | P 3.15
K23: Q 1.4 | T 2.62 | D 2.2 | H 1.7 | N 2.63 | S 2.1 | E 2.9 | W 2.13 | R 2.74 | V 2.28 | C 2.24 | A 1.79 | F 3.36 | I 2.1 | P 2.15 | M 1.76 | G 1.83 | L 2.44
T17: S 1.8 | Q 2.02 | I 1.61 | V 1.71 | Y 1.33 | R 2.29 | L 1.82 | E 1.81 | M 1.73 | F 2.12 | G 1.39 | H 3.16 | A 2.74 | P 2.51 | D 1.94 | N 2.77 | W 2.16 | C 2.1
W21: H 3.17 | A 3.07 | R 2.77 | M 2.06 | L 2.78 | T 2.46 | S 2.8 | E 3.37 | I 3.04 | C 3.44 | N 3.33 | F 3.61 | V 3.07 | D 3.87 | Q 4.25
R16: M 2.19 | Y 1.41 | H 1.6 | V 1.95 | A 1.92 | L 2.22 | S 1.7 | K 1.74 | T 1.65 | Q 2.2 | P 2.37 | C 1.6 | N 3.22 | D 2.6 | I 1.43 | G 1.89 | E 2.81
R19: W 1.71 | V 2.21 | P 2.45 | Y 2.66 | G 1.8 | K 2.09 | D 2.28 | A 2.03 | C 2.5 | E 1.92 | N 1.83 | T 1.7 | M 2.44 | S 1.91 | L 1.31
V20: D 2.52 | K 2.41 | R 1.64 | W 1.72 | H 2.1 | T 2.95 | I 2.64 | Y 1.87 | P 2.44 | S 2.15 | L 2.29 | C 2.39 | E 1.73 | M 1.66
D15: M 1.55 | V 1.37 | G 2.09 | Q 2.32 | E 1.66 | Y 2.97 | K 1.41 | T 1.19 | C 1.1 | P 2.17

From the supplement of paper PMC10567573
